Reference: publication PMC12311003, “Biochemical characterization of a novel purified lectin extracted from Pleurotus ostreatus mushroom for its antiviral activity” (Scientific Reports, 2025)
Blank lines part the entries; values can stand above or below the molecule they belong to.

Columns and labels:
[1] = biological target: T1, HBV polymerase (Hepatitis B virus ayw/Japan/JYW796/1988, UniProt Q9QMI1); assay: [3H]TTP incorporation, scintillation counting; assay type: biochemical
T1 construct: gene P
T1 sequence (Q9QMI1 whole entry): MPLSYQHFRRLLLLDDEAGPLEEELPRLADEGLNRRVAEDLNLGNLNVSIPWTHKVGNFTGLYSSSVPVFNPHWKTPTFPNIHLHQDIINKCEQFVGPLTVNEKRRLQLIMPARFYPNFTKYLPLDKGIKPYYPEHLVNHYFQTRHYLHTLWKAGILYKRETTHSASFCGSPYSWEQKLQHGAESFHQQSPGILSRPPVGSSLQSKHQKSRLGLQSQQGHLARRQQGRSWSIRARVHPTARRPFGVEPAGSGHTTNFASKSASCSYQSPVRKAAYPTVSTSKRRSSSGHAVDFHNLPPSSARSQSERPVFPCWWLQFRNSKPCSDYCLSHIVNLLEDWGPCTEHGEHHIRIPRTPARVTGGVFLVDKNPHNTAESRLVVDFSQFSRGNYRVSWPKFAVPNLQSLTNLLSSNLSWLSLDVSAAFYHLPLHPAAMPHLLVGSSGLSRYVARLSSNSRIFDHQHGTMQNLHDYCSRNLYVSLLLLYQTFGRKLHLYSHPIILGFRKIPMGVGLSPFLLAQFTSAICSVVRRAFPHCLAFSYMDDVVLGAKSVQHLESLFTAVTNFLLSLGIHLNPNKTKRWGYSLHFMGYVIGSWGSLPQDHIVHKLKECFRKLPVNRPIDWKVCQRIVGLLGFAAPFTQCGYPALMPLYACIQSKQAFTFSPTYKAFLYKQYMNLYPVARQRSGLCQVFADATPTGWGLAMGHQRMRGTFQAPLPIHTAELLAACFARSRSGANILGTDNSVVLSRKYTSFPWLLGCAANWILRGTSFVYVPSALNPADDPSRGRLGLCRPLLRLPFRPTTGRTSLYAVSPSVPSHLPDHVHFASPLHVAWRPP

[2] = biological target: HCV NS3/NS4A protease (Hepatitis C virus (isolate BK), UniProt P26663); conditions: NS4A/NS4B-derived fluorogenic peptide substrate, 30 min, 37 °C; used as comparator drug
HCV NS3/NS4A protease, sequence (P26663 1027-1657): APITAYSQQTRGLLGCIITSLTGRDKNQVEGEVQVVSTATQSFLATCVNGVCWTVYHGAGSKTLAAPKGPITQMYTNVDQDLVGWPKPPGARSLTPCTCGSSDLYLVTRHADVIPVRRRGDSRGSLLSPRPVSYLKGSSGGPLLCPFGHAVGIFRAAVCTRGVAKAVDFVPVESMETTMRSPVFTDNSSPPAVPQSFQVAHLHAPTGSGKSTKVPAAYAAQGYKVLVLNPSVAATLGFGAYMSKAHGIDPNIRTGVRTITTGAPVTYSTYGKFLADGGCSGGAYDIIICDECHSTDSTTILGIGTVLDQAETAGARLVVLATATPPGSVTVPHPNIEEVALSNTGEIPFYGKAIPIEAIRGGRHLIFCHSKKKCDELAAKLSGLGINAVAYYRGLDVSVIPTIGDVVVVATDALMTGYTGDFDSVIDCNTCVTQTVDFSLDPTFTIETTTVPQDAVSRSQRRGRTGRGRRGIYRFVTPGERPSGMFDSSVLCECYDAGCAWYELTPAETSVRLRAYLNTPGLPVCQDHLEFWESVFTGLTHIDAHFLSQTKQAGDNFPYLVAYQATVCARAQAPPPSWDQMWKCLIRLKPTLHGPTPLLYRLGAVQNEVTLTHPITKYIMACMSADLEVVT
HCV NS3/NS4A protease, sequence (P26663 1658-1711): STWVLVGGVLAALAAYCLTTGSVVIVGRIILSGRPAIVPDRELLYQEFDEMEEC

[3] = biological target: scavenger receptor class B-type I (SR-B1) (UniProt Q8WTV0); assay: AlphaScreen or HTRF
scavenger receptor class B-type I (SR-B1), sequence (Q8WTV0 whole entry): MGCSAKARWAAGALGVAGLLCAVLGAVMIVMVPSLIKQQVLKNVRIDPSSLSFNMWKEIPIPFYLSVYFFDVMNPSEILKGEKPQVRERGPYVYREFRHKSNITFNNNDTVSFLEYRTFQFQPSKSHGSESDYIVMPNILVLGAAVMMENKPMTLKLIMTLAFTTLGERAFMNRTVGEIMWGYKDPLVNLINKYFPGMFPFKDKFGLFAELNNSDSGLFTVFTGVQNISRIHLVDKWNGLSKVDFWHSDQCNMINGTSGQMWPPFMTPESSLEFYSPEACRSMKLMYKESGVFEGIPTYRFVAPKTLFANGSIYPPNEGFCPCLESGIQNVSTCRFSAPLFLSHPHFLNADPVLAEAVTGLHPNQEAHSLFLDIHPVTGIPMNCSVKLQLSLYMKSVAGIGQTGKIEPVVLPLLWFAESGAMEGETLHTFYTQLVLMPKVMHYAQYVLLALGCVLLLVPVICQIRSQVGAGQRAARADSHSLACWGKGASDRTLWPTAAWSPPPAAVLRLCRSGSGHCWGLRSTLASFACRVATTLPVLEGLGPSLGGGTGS

[4] = biological target: CD81 (human (endogenous in PBMCs)) (UniProt P60033); assay: flow cytometry on cells; 1 x 10^6 PBMCs incubated 2 h with 12.5 µM POL, then anti-CD81-FITC antibody at 4 °C for 30 min; binding taken from the fall in unbound CD81
CD81 (human (endogenous in PBMCs)), sequence (P60033 whole entry): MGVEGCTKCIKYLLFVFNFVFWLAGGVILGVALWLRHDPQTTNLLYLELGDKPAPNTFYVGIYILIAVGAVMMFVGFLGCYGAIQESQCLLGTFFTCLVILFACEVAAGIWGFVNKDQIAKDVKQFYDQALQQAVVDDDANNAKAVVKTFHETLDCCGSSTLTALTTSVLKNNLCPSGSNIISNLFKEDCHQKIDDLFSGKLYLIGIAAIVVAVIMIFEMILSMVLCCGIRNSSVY

Molecule: Nc1ccn([C@@H]2CS[C@H](CO)O2)c(=O)n1 [LAM, lamivudine]
IC50 [1]: 6.52 nM

Molecule: CC(C)OC(=O)[C@H](C)N[P@](=O)(OC[C@H]1O[C@@H](n2ccc(=O)[nH]c2=O)[C@](C)(F)[C@@H]1O)Oc1ccccc1 [SOF, sofosbuvir]
IC50 [2]: 15.5 nM

IC50 [3]: 10.1 nM
Kd [3]: 3.6 nM
Ki [3]: 3.03 nM
percentage of binding to CD81 at 12.5 µM [4]: 58.8%
Molecule: Pleurotus ostreatus lectin (POL) (natural protein)
